Measured values from PMC2649980 (Proteins, 2009).

Target: the molecule itself
Experiment: SEC

B1: D355R TRβ LBD (human thyroid hormone receptor beta ligand binding domain, a.a. 209-461, D355R), TRIAC-bound (domain or fragment, UniProt P10828 209-461, looked up)
chain: GHKPEPTDEEWELIKTVTEAHVATNAQGSHWKQKRKFLPEDIGQAPIVNAPEGGKVDLEAFSHFTKIITPAITRVVDFAKKLPMFCELPCEDQIILLKGCCMEIMSLRAAVRYDPESETLTLNGEMAVTRGQLKNGGLGVVSDAIFRLGMSLSSFNLDDTEVALLQAVLLMSSDRPGLACVERIEKYQDSFLLAFEHYINYRKHHVTHFWPKLLMKVTDLRMIGACHASRFLHMKVECPTELFPPLFLEVFED
For B1, the “stoichiometry N” value was 2.
